Experiment [1] deals with full-length mature cynomolgus EMR2 (residues Q24-N816) with N-terminal aspartic acid/lysine epitope tag, overexpressed on HEK293T cells (cynomolgus monkey (Macaca fascicularis)).
Experiment [2] has the same target. Briefly: flow cytometry on transduced HEK293T; 293 naive MFI 96.8. (Flow cytometry measures light scatter and fluorescence of single cells or particles in a stream.)
Experiment [3] shares this target. Briefly: flow cytometry on transduced HEK293T; 293 naive MFI ND.

Sequence of full-length mature cynomolgus EMR2 (residues Q24-N816) with N-terminal aspartic acid/lysine epitope tag, overexpressed on HEK293T cells (cynomolgus monkey (Macaca fascicularis)) (chain, as listed by the source): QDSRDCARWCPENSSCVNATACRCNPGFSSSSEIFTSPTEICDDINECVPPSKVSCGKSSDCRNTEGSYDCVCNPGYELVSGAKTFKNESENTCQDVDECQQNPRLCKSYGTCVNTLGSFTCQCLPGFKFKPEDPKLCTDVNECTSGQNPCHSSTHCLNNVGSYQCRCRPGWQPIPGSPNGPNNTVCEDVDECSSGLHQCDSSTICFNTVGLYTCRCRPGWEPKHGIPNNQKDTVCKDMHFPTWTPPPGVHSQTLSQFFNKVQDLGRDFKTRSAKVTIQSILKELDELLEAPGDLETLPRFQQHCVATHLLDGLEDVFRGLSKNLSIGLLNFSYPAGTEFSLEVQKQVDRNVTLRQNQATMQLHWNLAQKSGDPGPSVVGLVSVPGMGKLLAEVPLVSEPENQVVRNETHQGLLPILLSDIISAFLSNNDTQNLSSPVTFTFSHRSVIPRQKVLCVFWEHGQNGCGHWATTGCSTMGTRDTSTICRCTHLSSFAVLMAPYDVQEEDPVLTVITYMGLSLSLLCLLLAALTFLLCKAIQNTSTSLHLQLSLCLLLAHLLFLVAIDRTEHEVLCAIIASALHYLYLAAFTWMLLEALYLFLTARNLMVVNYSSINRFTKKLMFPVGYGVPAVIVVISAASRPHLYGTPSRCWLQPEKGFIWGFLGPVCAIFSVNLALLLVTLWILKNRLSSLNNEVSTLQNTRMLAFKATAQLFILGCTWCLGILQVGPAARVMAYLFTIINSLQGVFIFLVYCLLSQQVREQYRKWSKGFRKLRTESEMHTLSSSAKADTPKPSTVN

B1: SC93.216 (antibody, IgG1, V domains shown)
VH: EVQLVESGGGLVKPGGSLKLSCAASGFTFSSYGMSWVRQTPEKRLEWVAAIHSNGDITYYPDTVKGRFTISRDNAKNTLYLQMSSLTSEDTALYYCANLAYWGQGTLVTVSA
VL: EIQMTQSPSSMSASLGDRITITCQATQDIVKNLNWYQQKPGKSPSSLIYYATELAEGVPSRFSGSGSGSDYSLTISNLESEDFADYYCLQFYEFPLTFGAGTKLELK
For the molecule B1, in experiment [1], the % live, FAB-saporin killing assay was 105%. In experiment [2], this molecule showed an FC MFI of 220.

B2: SC93.15 (antibody, IgG1, V domains shown)
VH: EVQLQQSGPELVKPGASVKISCKGSGYTFTDYFMNWVKLSHGKSLEWIGEINPNNGGTNYNQKFKGKATLTVDKSSSIAYMELRSLTSEDSAVYYCARPGTNYWGPGTTLTVSS
VL: DIVMTQSHKFMSTSVGDRVSITCKASQNVGTSVAWYQQKPGHSPKLLIYWASTRHTGVPDRFTGSGSGTDFSLTISSVQSEDLTDYFCQQYSSYPLTFGGGTKLEIK
B2 displayed a % live, FAB-saporin killing assay in experiment [1] of 101%. Besides, the FC MFI in experiment [3] is 41.2.

Source of the values: patent publication US20180327506A1.
